# Results reported in article PMC6240786.
# Key:
# [1] = target: T181N cucumene synthase (Streptomyces clavuligerus); experiment: crystal structure
# [2] = target: Streptomyces clavuligerus cucumene synthase, wild-type (Streptomyces clavuligerus); experiment: crystal structure
stoichiometry N [1],stoichiometry N [2],Substance
2,–,T181N cucumene synthase (enzyme)
–,2,"Streptomyces clavuligerus cucumene synthase, wild-type (enzyme)"
